From paper PMC3159451

Experiments:
Experiment in all cases: SPR
cMBD2 MBD R46C = cMBD2 MBD R46C (Gallus gallus (chicken), UniProt Q5EFL0 2-71, R45C)
cMBD2 MBD K19W = cMBD2 MBD K19W (Gallus gallus (chicken), UniProt Q5EFL0 2-71, K18W)
cMBD2 MBD WT = cMBD2 MBD WT (Gallus gallus (chicken), UniProt Q5EFL0 2-71)
cMBD2 MBD R67M = cMBD2 MBD R67M (Gallus gallus (chicken), UniProt Q5EFL0 2-71, R66M)
cMBD2 MBD K32A = cMBD2 MBD K32A (Gallus gallus (chicken), UniProt Q5EFL0 2-71, K31A)
cMBD2 MBD Y36F = cMBD2 MBD Y36F (Gallus gallus (chicken), UniProt Q5EFL0 2-71, Y35F)

Binder	Kd (cMBD2 MBD R46C) [µM]	Kd (cMBD2 MBD K19W) [µM]	Kd (cMBD2 MBD WT) [µM]	Kd (cMBD2 MBD R67M) [µM]	Kd (cMBD2 MBD K32A) [µM]	Kd (cMBD2 MBD Y36F) [µM]
rho-globin mCpG WT 10 bp (dsDNA, 5-methyl-C at position 5 of both strands (mC105, mC115)) DNA 1: GGATCGGCTC DNA 2: GAGCCGATCC	590 ± 71	135 ± 17	2.1 ± 0.1	197 ± 17	291 ± 19	109 ± 3
Inverted (dsDNA, 5-methyl-C at position 5 of both strands) DNA 1: GGACCGACTC DNA 2: GAGTCGGTCC			2.3 ± 0.5			
Thy104Gua (dsDNA, 5-methyl-C at position 5 of both strands) DNA 1: GGAGCGGCTC DNA 2: GAGCCGCTCC			2.2 ± 0.1			
Gua107Thy (dsDNA, 5-methyl-C at position 5 of both strands) DNA 1: GGATCGTCTC DNA 2: GAGACGATCC			29 ± 2			
